{
  "source": "paper PMC3760615",
  "about": "(The Journal of Cell Biology, 2013)",
  "biological_target": "T1, recombinant His-tagged drebrin ADFH-CC construct (human, UniProt Q16643 1-256)",
  "T1 sequence": "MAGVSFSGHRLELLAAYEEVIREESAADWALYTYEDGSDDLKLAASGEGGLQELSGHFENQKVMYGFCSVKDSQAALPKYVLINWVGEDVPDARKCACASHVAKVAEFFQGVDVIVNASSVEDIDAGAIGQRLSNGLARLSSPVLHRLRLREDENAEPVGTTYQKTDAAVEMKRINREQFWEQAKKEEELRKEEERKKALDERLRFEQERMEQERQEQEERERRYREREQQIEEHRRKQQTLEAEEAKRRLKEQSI",
  "experiment": "co-sedimentation",
  "data": [
    {"binder": "recombinant His-tagged drebrin BB (blue box) domain (domain or fragment) VLAAPVEPATADATEIHDAADTIETDTATADTTVANNVPPAATSLIDLWPGNGEGASTLQGEPRAPTPPSGTEVTLAEVPLLDEVAPEPLLPAGEGCATLLNFDELPEPPATFCDPEEVEGESLAAPQTPTLPSALEELEQEQEPEPHLLTNGETTQKEGTQASEGYFSQSQEEEFAQSEELCAKAPPPVFYNKPPEIDITCWDADPVPEEEEGFEGGD", "values": [
      {"measurement": "binding result", "result": "binds"}
    ]}
  ]
}
